These results are taken from IntAct's records for PubMed 15282298.

First the molecules themselves.
B1: Meiosis-inducing protein 1 (Saccharomyces cerevisiae), P21190 (parent)
chain: MQADMHGKLHAALEDGFFLFPFEQQQQPNIYYDTTTDQEDRPCFSFGSTISPRSWHFEKSDKIASSQLQNLVHTQPIHLINPQILFNEEFLNLENIDSQPISKETKTTKDCTMATGPERGKKSSESTRSSSLSSLFSNDESASTFHSSFNNHDNFQKSNRNGDDIDISDTIKYETNTNAQKDIKIFQENFEFNEFPYTQDFYPYTTNYTYSKPTNIHESINSKNTDSYSQYQDQFPPHTDNIHSFNNRHYSNHKSTNCNYYNNTSNNNNASDNVYEADPFIDEPQVPSYYYPLEIAFDVEKSPPPSLQKLNSKELEFLKKLNSKLSRYAAAYSFSSSNDQDYYDKVRFQEISYKFSKTYS
partner: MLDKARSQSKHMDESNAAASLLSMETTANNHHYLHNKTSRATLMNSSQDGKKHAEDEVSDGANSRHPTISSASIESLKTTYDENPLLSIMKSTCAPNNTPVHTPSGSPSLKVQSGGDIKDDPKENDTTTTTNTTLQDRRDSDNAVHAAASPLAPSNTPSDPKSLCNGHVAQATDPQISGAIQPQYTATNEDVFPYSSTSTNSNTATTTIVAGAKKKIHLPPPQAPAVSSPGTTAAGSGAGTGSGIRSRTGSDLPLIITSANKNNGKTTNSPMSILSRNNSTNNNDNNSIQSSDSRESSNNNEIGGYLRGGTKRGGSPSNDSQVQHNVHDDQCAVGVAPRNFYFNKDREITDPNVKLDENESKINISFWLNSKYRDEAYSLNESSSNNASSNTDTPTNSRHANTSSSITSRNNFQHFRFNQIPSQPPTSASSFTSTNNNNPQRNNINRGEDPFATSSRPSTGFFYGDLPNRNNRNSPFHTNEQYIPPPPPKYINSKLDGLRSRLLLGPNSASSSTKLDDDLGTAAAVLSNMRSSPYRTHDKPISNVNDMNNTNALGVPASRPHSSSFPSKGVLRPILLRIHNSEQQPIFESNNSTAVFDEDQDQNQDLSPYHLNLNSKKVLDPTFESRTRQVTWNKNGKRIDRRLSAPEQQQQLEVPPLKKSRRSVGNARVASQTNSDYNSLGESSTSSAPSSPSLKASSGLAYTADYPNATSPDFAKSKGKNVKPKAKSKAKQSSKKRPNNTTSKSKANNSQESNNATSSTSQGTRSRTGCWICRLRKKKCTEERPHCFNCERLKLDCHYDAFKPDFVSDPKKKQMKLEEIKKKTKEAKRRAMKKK

In this assay the parent is B1. The settings on record: with ume6_yeast UME6, P39001.
S302D: the “effect of a mutation on the interaction” value was “with no effect”.
The entry for S302A is “with no effect”.
As to Y359F, the “effect of a mutation on the interaction” value was “decreasing interaction strength”.
The same measure for S333A: “with no effect”; for S306A: “with no effect”.
On to S352A;S356A;S360A, for which the “effect of a mutation on the interaction” value was “with no effect”.
The entry for S337A is “with no effect”.
